Source: paper PMC3568127 (2013)

What was measured:
[1] = target: T1, NRP1 (neuropilin 1) expressed from an adenovirus on DU145 cells (UniProt O14786 22-923); test: competition with bt-VEGF-A165 on DU145 cells
[2] = target: T1, NRP1 (neuropilin 1) expressed from an …; test: competition with bt-VEGF-A165 on DU145 cells, +BSA

T1 sequence (O14786 22-923): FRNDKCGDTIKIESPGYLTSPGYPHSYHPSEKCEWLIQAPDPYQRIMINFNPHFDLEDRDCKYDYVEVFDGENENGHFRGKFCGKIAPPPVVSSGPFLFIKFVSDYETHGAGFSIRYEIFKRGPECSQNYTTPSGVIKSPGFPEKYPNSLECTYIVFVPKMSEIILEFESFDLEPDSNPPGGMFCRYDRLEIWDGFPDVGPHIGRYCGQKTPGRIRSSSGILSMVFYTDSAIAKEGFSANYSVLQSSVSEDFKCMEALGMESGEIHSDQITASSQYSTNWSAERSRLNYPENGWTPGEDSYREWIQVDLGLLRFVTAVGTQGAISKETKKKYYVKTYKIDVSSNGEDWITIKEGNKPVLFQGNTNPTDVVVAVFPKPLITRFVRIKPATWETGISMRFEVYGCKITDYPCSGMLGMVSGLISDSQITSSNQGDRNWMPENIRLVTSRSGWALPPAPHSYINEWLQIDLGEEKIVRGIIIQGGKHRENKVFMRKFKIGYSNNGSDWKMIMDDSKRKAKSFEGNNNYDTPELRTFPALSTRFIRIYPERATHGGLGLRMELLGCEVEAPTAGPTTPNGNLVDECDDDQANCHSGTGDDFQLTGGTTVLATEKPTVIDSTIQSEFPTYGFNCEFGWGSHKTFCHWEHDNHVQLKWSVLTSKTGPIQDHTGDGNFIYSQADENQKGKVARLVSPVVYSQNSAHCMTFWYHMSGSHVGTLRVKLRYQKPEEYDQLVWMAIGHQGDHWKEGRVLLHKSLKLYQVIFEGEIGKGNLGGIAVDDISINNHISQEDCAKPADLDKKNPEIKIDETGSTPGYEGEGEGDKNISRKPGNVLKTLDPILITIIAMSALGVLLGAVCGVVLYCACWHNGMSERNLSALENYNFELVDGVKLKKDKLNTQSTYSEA

B1: VEGF-A165 (R&D Systems), unlabelled (ligand)
chain: APMAEGGGQNHHEVVKFMDVYQRSYCHPIETLVDIFQEYPDEIEYIFKPSCVPLMRCGGCCNDEGLECVPTEESNITMQIMRIKPHQGQHIGEMSFLQHNKCECRPKKDRARQENPCGPCSERRKHLFVQDPQTCKCSCKNTDSRCKARQLELNERTCRCDKPRR
modifications: Disulfide-linked homodimer. Mature VEGF165 (equals P15692-4 residues 27-191, 165 aa) is built from the 395-aa displayed form by removing exon 6a, with K to N at the splice junction. Limits follow the standard mature VEGF165; the paper does not print them.
**Q.** For B1, which IC50 [1] is on record?
**A.** The IC50 was 0.8 nM.

**Q.** PCGPCSERRKHLFVQDPQTCKCSCKNTDSRCKARQLELNERTCRCDKPRR (domain or fragment) was tested. Which IC50 [2] did it give?
**A.** Its IC50 is 152 nM.

**Q.** What about the IC50 [1] of the same binder?
**A.** The IC50 was 161 nM.

**Q.** With PCGPCSERRKHLFVQDPQTCKCSCKNTDSRCKARQLELNERTCRCDKPRR (domain or fragment) [VEGF-A165-HBD with the His6-tag removed] as the binder, how does the IC50 [2] read?
**A.** The IC50 was 229 nM.

**Q.** What about the IC50 [1] of the same binder?
**A.** Its IC50 is 107 nM.
